Experimental data taken from patent US6642007 (Pfizer, dated 2003).
No end group written: not given here. *: point of attachment. Biotin = O=C1N[C@H]2[C@H](CS[C@H]2CCCCC(=O)*)N1

T1: biotinylated peptide Bt-AEGPPGPQG (SEQ ID NO: 14)
T1 construct: also called biotinylated peptide 040; peptide 040
T1 peptide: Biotin-AEGPPGPQG

T2: biotinylated peptide of SEQ ID NO: 19
T2 construct: Captured on a streptavidin biosensor chip; also called biotinylated peptide 054
T2 peptide: Biotin-GEPGDDGPS

T3: biotinylated peptide 225 (SEQ ID NO: 64) (biotinylated (position not given))
T3 construct: Collagen-related peptide fragment on streptavidin magnetic beads
T3 peptide: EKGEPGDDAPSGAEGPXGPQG


Columns and labels:
[1] = molecular target: T1, biotinylated peptide Bt-AEGPPGPQG (SEQ …); experiment: BIAcore, biotinylated peptide SEQ ID NO: 14 on streptavidin chip
Protocol: Positive wells in the ELISA were subjected to a second round of selection on the BIAcore™ system. Wells were sought that produced antibodies having slow off rates on the BIAcore™ system as determined using BIAevaluation™ version 2.1 software (Pharmacia Biosensor, Piscataway, N.J.). Streptavidin (Pierce Chemical) at 100 μg/ml was conjugated using the Pharmacia Amine Coupling Kit (Pharmacia Biosensor) to carboxylated dextran-coated biosensor chips (Pharmacia Biosensor) at a pH 4.0 using a flow rate of 5 μl/minute for 35 minutes. Typically, 2000 RU was added. Peptide (100 ng/ml) biotinylated on residue of 1 of SEQ ID NO: 14 as set forth in the Sequence Listing, was passed over the streptavidin chip at a flow rate of 100 μl/minute for 10 seconds. Candidate supernatants containing antibody were passed over the chip (2 μl/minute for 30 seconds) and the amount of added antibody noted. The buffer was changed to HBS (HEPES buffered saline, Pharmacia Biosensor), and the dissociation rate noted for the next 80 seconds. The chip was cleaned with 0.1 N HCl for 30 seconds between each run to remove residual antibody and to clear any nonspecific binding. The off-rates were determined using BIAevaluation™ kinetic analysis software version 2.1. Clones with the slowest off rates were selected for further analysis. These clones included 9A4, 11F2, and 3H10.
Binding to antigen was evaluated on the BlAcore™ system for both the p9A4lCAT7-1 and p9A4lF-5 scFv purified gene products as follows. A streptavidin chip was loaded with biotinylated peptide of SEQ ID NO: 14 as given in Example 1 above.

[2] = molecular target: T1, biotinylated peptide Bt-AEGPPGPQG (SEQ …); experiment: BIAcore, scFv over biotinylated peptide SEQ ID NO: 14 on streptavidin chip, dissociation 280 s
Protocol: Off-rates for the scFv constructs were measured by analysis of dissociation data obtained on the BlAcore™ system (Pharmacia Biosensor) with BlAevaluation™ version 2.1 software. To obtain the data on the BlAcore™ system, streptavidin surfaces on the BlAcore™ chips were prepared as described previously in Example 1. Biotinylated peptide (SEQ ID NO: 14) was bound to the prepared streptavidin surfaces to RU densities ranging from about 2–11 RU's/surface. The lower level of derivatization would help avoid getting erroneous off-rates that could be obtained if mass transport was an issue. Purified scFv's were injected over these surfaces to allow binding of the constructs for 60 seconds. PBS buffer alone was then substituted and the dissociation of scFv was allowed to proceed for an additional 280 sec. Off-rates were calculated from these dissociation data.

[3] = molecular target: T2, biotinylated peptide of SEQ ID NO: 19; experiment: ELISA-positive hybridoma supernatant, BIAcore over biotinylated peptide SEQ ID NO: 19 on streptavidin chip
Protocol: Positive wells were subjected to a second round of selection on the BlAcore™ system for those which had antibodies giving the slowest off-rates. Streptavidin (Pierce Chemical) at 100 µg/ml was conjugated using the Pharmacia Amine Coupling Kit (Pharmacia Biosensor) to carboxylated dextran coated biosensor chips (Pharmacia Biosensor) at pH 4.0 using a flow rate of 5 µl/minute for 35 minutes. Typically, 2000 RU was added. Peptide (100 ng/ml), biotinylated on residue 1 of SEQ ID NO: 19 as set forth in the Sequence Listing, was passed over the streptavidin chip at a flow rate of 100 µl/minute for 10 seconds. Supernatants containing antibody were passed over the chip (2 µl/minute for 30 seconds) and the amount of added antibody noted. The buffer was changed to HBS (Pharmacia Biosensor), and the dissociation rate noted for the next 80 seconds. The chip was cleaned with 0.1 N HCl for 30 seconds between each run to remove antibody and to get rid of any nonspecific binding. The off-rates were determined using the BlAevaluation™ software version 2.1.

[4] = molecular target: T3, biotinylated peptide 225 (SEQ ID NO: 64); experiment: told in words beside the Origen result

| Binder | koff [2] [s⁻¹] | other results |
| --- | --- | --- |
| monoclonal antibody 9A4 (antibody, V domains shown, also called mAb 9A4; 9A4 IgG) VH: QIQLVQSGPELKKPGETVKISCKASGYTFTDYSIHWVKQAPGKGLKWMGWINTETGEPTYADDFKGRFAFSLETSASTAYLQINNLKNEDTATYFCARGGSLDYWGQGTTLTVSS VL: QIVLTQSPVFMSASPGEKVTMTCSASSSVSYMYWYQQKPGSSPRLLIHATSNLASGVPVRFSGGGSGTSYSLTISRMEAEDAATYYCQQWRSYTRTFGGGTKLEIIR | – | Kd [1]: 120 nM; koff [1]: 0.0176 s⁻¹ |
| 9A4 scFv (VH-linker-VL-HIS-MYC tags) from p9A4ICAT7-1 (scFv, Monomer purified from E. coli TG1; also called 9A4ICAT7-1 scFv; p9A4lCAT7-1) scFv: QIQLVQSGPELKKPGETVKISCKASGYTFTDYSIHWVKQAPGKGLKWMGWINTETGEPTYADDFKGRFAFSLETSASTAYLQINNLKNEDTATYFCARGGSLDYWGQGTTLTVSSGGGGSGGGGSGGGGSQIVLTQSPVFMSASPGEKVTMTCSASSSVSYMYWYQQKPGSSPRLLIHATSNLASGVPVRFSGGGSGTSYSLTISRMEAEDAATYYCQQWRSYTRTFGGGTKLEIIAAAHHHHHHGAAEQKLISEEDLNGAA | 0.003 | koff [1]: 0.0012 s⁻¹ |
| 9A4 scFv CDR3 VH mutant clone 10C (scFv, Derived from p9A4ICAT7-1) scFv: QIQLVQSGPELKKPGETVKISCKASGYTFTDYSIHWVKQAPGKGLKWMGWINTETGEPTYADDFKGRFAFSLETSASTAYLQINNLKNEDTATYFCGRGGSLDYCGQGTTLTVSSGGGGSGGGGSGGGGSQIVLTQSPVFMSASPGEKVTMTCSASSSVSYMYWYQQKPGSSPRLLIHATSNLASGVPVRFSGGGSGTSYSLTISRMEAEDAATYYCQQWRSYTRTFGGGTKLEIIAAAHHHHHHGAAEQKLISEEDLNGAA | 0.0094 | – |
| 9A4 scFv CDR3 VH mutant clone 8D (scFv, Derived from p9A4ICAT7-1) scFv: QIQLVQSGPELKKPGETVKISCKASGYTFTDYSIHWVKQAPGKGLKWMGWINTETGEPTYADDFKGRFAFSLETSASTAYLQINNLKNEDTATYFCARGGSLDNWGQGTTLTVSSGGGGSGGGGSGGGGSQIVLTQSPVFMSASPGEKVTMTCSASSSVSYMYWYQQKPGSSPRLLIHATSNLASGVPVRFSGGGSGTSYSLTISRMEAEDAATYYCQQWRSYTRTFGGGTKLEIIAAAHHHHHHGAAEQKLISEEDLNGAA | 0.0104 | – |
| 9A4 scFv CDR3 VH mutant clone 13G (scFv, Derived from p9A4ICAT7-1) scFv: QIQLVQSGPELKKPGETVKISCKASGYTFTDYSIHWVKQAPGKGLKWMGWINTETGEPTYADDFKGRFAFSLETSASTAYLQINNLKNEDTATYFCGRGGSLDNWGQGTTLTVSSGGGGSGGGGSGGGGSQIVLTQSPVFMSASPGEKVTMTCSASSSVSYMYWYQQKPGSSPRLLIHATSNLASGVPVRFSGGGSGTSYSLTISRMEAEDAATYYCQQWRSYTRTFGGGTKLEIIAAAHHHHHHGAAEQKLISEEDLNGAA | 0.0103 | – |
| 9A4 scFv CDR3 VH mutant clone 5C (scFv, Derived from p9A4ICAT7-1) scFv: QIQLVQSGPELKKPGETVKISCKASGYTFTDYSIHWVKQAPGKGLKWMGWINTETGEPTYADDFKGRFAFSLETSASTAYLQINNLKNEDTATYFCARGGSLDSWGQGTTLTVSSGGGGSGGGGSGGGGSQIVLTQSPVFMSASPGEKVTMTCSASSSVSYMYWYQQKPGSSPRLLIHATSNLASGVPVRFSGGGSGTSYSLTISRMEAEDAATYYCQQWRSYTRTFGGGTKLEIIAAAHHHHHHGAAEQKLISEEDLNGAA | 0.0025 | – |
| 9A4 scFv CDR3 VH mutant clone 15A (scFv, Derived from p9A4ICAT7-1) scFv: QIQLVQSGPELKKPGETVKISCKASGYTFTDYSIHWVKQAPGKGLKWMGWINTETGEPTYADDFKGRFAFSLETSASTAYLQINNLKNEDTATYFCARGGRLDYWGQGTTLTVSSGGGGSGGGGSGGGGSQIVLTQSPVFMSASPGEKVTMTCSASSSVSYMYWYQQKPGSSPRLLIHATSNLASGVPVRFSGGGSGTSYSLTISRMEAEDAATYYCQQWRSYTRTFGGGTKLEIIAAAHHHHHHGAAEQKLISEEDLNGAA | 0.0035 | – |
| 9A4 scFv CDR3 VH mutant clone 14B (scFv, Derived from p9A4ICAT7-1) scFv: QIQLVQSGPELKKPGETVKISCKASGYTFTDYSIHWVKQAPGKGLKWMGWINTETGEPTYADDFKGRFAFSLETSASTAYLQINNLKNEDTATYFCARGGSLDHWGQGTTLTVSSGGGGSGGGGSGGGGSQIVLTQSPVFMSASPGEKVTMTCSASSSVSYMYWYQQKPGSSPRLLIHATSNLASGVPVRFSGGGSGTSYSLTISRMEAEDAATYYCQQWRSYTRTFGGGTKLEIIAAAHHHHHHGAAEQKLISEEDLNGAA | 0.0027 | – |
| monoclonal antibody 5109 (antibody, V domains shown) VH: EVQLVESGGGSVQPGGSLKLSCAASGFTFNTYGMSWVRQTPDKRLEWVATINSNGGLTFYADSVKGRFTISRDNAKNTLYLQMNRLKSGDSGMYYCVRGYSNYARWGQGALVTVSA VL: DVVMTQTPLTLSVTIGQSASISCKSSQSLLGSDGLTYLIWLLQRPGQSPKRLIFLVSELDSGVPDRFTGSGSGTDFTLKISRVEAEDLGVYYCCQGTHFPHTFGAGTKLELK | – | binding result [3]: binds; binding result [4]: binds |
| 9A4 scFv (VL-linker-VH-FLAG tag) from p9A4IF-5 (scFv, Monomer purified from E. coli; also called 9A4IF-5 scFv; p9A4lF-5) scFv: QIVLTQSPVFMSASPGEKVTMTCSASSSVSYMYWYQQKPGSSPRLLIHATSNLASGVPVRFSGGGSGTSYSLTISRMEAEDAATYYCQQWRSYTRTFGGGTKLEIILSADDAKKDAAKKDDAKKDDAKKDLEIQLVQSGPELKKPGETVKISCKASGYTFTDYSIHWVKQAPGKGLKWMGWINTETGEPTYADDFKGRFAFSLETSASTAYLQINNLKNEDTATYFCARGGSLDYWGQGTTLTVSSASDYKDDDDK | 0.0048 | Kd [1]: 110 nM |

More lines, main results first:

| koff [2] [s⁻¹] | Binder | other results |
| --- | --- | --- |
| 0.014 | 9A4 scFv CDR3 VH mutant clone 18E (scFv, Derived from p9A4ICAT7-1) scFv: QIQLVQSGPELKKPGETVKISCKASGYTFTDYSIHWVKQAPGKGLKWMGWINTETGEPTYADDFKGRFAFSLETSASTAYLQINNLKNEDTATYFCARGGSLDVWGQGTTLTVSSGGGGSGGGGSGGGGSQIVLTQSPVFMSASPGEKVTMTCSASSSVSYMYWYQQKPGSSPRLLIHATSNLASGVPVRFSGGGSGTSYSLTISRMEAEDAATYYCQQWRSYTRTFGGGTKLEIIAAAHHHHHHGAAEQKLISEEDLNGAA | – |
| 0.0025 | 9A4 scFv CDR3 VH mutant clone 24A (scFv, Derived from p9A4ICAT7-1) scFv: QIQLVQSGPELKKPGETVKISCKASGYTFTDYSIHWVKQAPGKGLKWMGWINTETGEPTYADDFKGRFAFSLETSASTAYLQINNLKNEDTATYFCGRGGSLEYWGQGTTLTVSSGGGGSGGGGSGGGGSQIVLTQSPVFMSASPGEKVTMTCSASSSVSYMYWYQQKPGSSPRLLIHATSNLASGVPVRFSGGGSGTSYSLTISRMEAEDAATYYCQQWRSYTRTFGGGTKLEIIAAAHHHHHHGAAEQKLISEEDLNGAA | – |
| 0.0028 | 9A4 scFv CDR3 VH mutant clone 20B (scFv, Derived from p9A4ICAT7-1) scFv: QIQLVQSGPELKKPGETVKISCKASGYTFTDYSIHWVKQAPGKGLKWMGWINTETGEPTYADDFKGRFAFSLETSASTAYLQINNLKNEDTATYFCGRGGNLDHCGQGTTLTVSSGGGGSGGGGSGGGGSQIVLTQSPVFMSASPGEKVTMTCSASSSVSYMYWYQQKPGSSPRLLIHATSNLASGVPVRFSGGGSGTSYSLTISRMEAEDAATYYCQQWRSYTRTFGGGTKLEIIAAAHHHHHHGAAEQKLISEEDLNGAA | – |
| 0.0026 | 9A4 scFv CDR3 VH mutant clone 38B (scFv, Derived from p9A4ICAT7-1) scFv: QIQLVQSGPELKKPGETVKISCKASGYTFTDYSIHWVKQAPGKGLKWMGWINTETGEPTYADDFKGRFAFSLETSASTAYLQINNLKNEDTATYFCGRGGSLDSCGQGTTLTVSSGGGGSGGGGSGGGGSQIVLTQSPVFMSASPGEKVTMTCSASSSVSYMYWYQQKPGSSPRLLIHATSNLASGVPVRFSGGGSGTSYSLTISRMEAEDAATYYCQQWRSYTRTFGGGTKLEIIAAAHHHHHHGAAEQKLISEEDLNGAA | – |
